Sequences and labels used below:
B1: G protein-activated inward rectifier potassium channel 1 (Rattus norvegicus (Rat)), P63251 (parent)
chain: MSALRRKFGDDYQVVTTSSSGSGLQPQGPGQGPQQQLVPKKKRQRFVDKNGRCNVQHGNLGSETSRYLSDLFTTLVDLKWRWNLFIFILTYTVAWLFMASMWWVIAYTRGDLNKAHVGNYTPCVANVYNFPSAFLFFIETEATIGYGYRYITDKCPEGIILFLFQSILGSIVDAFLIGCMFIKMSQPKKRAETLMFSEHAVISMRDGKLTLMFRVGNLRNSHMVSAQIRCKLLKSRQTPEGEFLPLDQLELDVGFSTGADQLFLVSPLTICHVIDAKSPFYDLSQRSMQTEQFEVVVILEGIVETTGMTCQARTSYTEDEVLWGHRFFPVISLEEGFFKVDYSQFHATFEVPTPPYSVKEQEEMLLMSSPLIAPAITNSKERHNSVECLDGLDDISTKLPSKLQKITGREDFPKKLLRMSSTTSEKAYSLGDLPMKLQRISSVPGNSEEKLVSKTTKMLSDPMSQSVADLPPKLQKMAGGPTRMEGNLPAKLRKMNSDRFT

Holding throughout (details): with kapca_bovin PRKACA
The variants in assay [1] derive from B1.
Variants of B1 are the subject of assay [2]. This is another data set of the same source.
In assay [3] the parent is B1. This is another data set of the same source.
The variants in assay [4] derive from B1. This is another data set of the same source.
Variants of B1 are the subject of assay [5]. This is another data set of the same source.

The text below walks through data of IntAct's records for PubMed 19765080.

MSALRRKFGDDYQVVTTSSSGSGLQPQGPGQGPQQQLVPKKKRQRFVDKNGRCNVQHGNLGSETSRYLSDLFTTLVDLKWRWNLFIFILTYTVAWLFMASMWWVIAYTRGDLNKAHVGNYTPCVANVYNFPSAFLFFIETEATIGYGYRYITDKCPEGIILFLFQSILGSIVDAFLIGCMFIKMSQPKKRAETLMFSEHAVISMRDGKLTLMFRVGNLRNSHMVSAQIRCKLLKSRQTPEGEFLPLDQLELDVGFSTGADQLFLVSPLTICHVIDAKSPFYDLSQRSMQTEQFEVVVILEGIVETTGMTCQARTSYTEDEVLWGHRFFPVISLEEGFFKVDYSQFHATFEVPTPPYSVKEQEEMLLMSSPLIAPAITNSKERHNCVECLDGLDDISTKLPSKLQKITGREDFPKKLLRMSSTTSEKAYSLGDLPMKLQRISSVPGNSEEKLVSKTTKMLSDPMSQSVADLPPKLQKMAGGPTRMEGNLPAKLRKMNSDRFT [S385C]: the “effect of a mutation on the interaction” value in assay [1] is “disrupting interaction”; in assay [2], “decreasing interaction”.

As for MSALRRKFGDDYQVVTTSSSGSGLQPQGPGQGPQQQLVPKKKRQRFVDKNGRCNVQHGNLGSETSRYLSDLFTTLVDLKWRWNLFIFILTYTVAWLFMASMWWVIAYTRGDLNKAHVGNYTPCVANVYNFPSAFLFFIETEATIGYGYRYITDKCPEGIILFLFQSILGSIVDAFLIGCMFIKMSQPKKRAETLMFSEHAVISMRDGKLTLMFRVGNLRNSHMVSAQIRCKLLKSRQTPEGEFLPLDQLELDVGFSTGADQLFLVSPLTICHVIDAKSPFYDLSQRSMQTEQFEVVVILEGIVETTGMTCQARTSYTEDEVLWGHRFFPVISLEEGFFKVDYSQFHATFEVPTPPYSVKEQEEMLLMSSPLIAPAITNSKERHNSVECLDGLDDISTKLPSKLQKICGREDFPKKLLRMSSTTSEKAYSLGDLPMKLQRISSVPGNSEEKLVSKTTKMLSDPMSQSVADLPPKLQKMAGGPTRMEGNLPAKLRKMNSDRFT [T407C], the results for the “effect of a mutation on the interaction” value in assay [3] and in assay [4] were “decreasing interaction” and “disrupting interaction”, respectively.

MSALRRKFGDDYQVVTTSSSGSGLQPQGPGQGPQQQLVPKKKRQRFVDKNGRCNVQHGNLGSETSRYLSDLFTTLVDLKWRWNLFIFILTYTVAWLFMASMWWVIAYTRGDLNKAHVGNYTPCVANVYNFPSAFLFFIETEATIGYGYRYITDKCPEGIILFLFQSILGSIVDAFLIGCMFIKMSQPKKRAETLMFSEHAVISMRDGKLTLMFRVGNLRNSHMVSAQIRCKLLKSRQTPEGEFLPLDQLELDVGFSTGADQLFLVSPLTICHVIDAKSPFYDLSQRSMQTEQFEVVVILEGIVETTGMTCQARTSYTEDEVLWGHRFFPVISLEEGFFKVDYSQFHATFEVPTPPYSVKEQEEMLLMSSPLIAPAITNSKERHNSVECLDGLDDISTKLPCKLQKITGREDFPKKLLRMSSTTSEKAYSLGDLPMKLQRISSVPGNSEEKLVSKTTKMLSDPMSQSVADLPPKLQKMAGGPTRMEGNLPAKLRKMNSDRFT [S401C]: the “effect of a mutation on the interaction” value in assay [5] is recorded as “decreasing interaction”; in assay [4], “disrupting interaction”.
